Reference: the DeepSol protein solubility set

Assay: soluble on expression in E. coli; label from the status in PepcDB or PDB records

Row | Sequence | soluble on expression in E. coli
1 | MDIKAMGYVVIPRLPFKEFRDEKIYDHLFKRAEYRPNQELELGQTIIKVVELAKDFNWSAAQIKYSLDRMEKQGYIKLHRLPQKRGLIVTILHYADYIQLGNYMKNKALEPAQIEHQEVDDKMKNAFELYENKVARSVGPMEAQRIGYMVDDYGEEKVMEAIKTAFQLKGKAASLSYVQAILSNPFTQKRKEKQYGYKQSSQYRHRISNDHAGTSGKVSPLFGNKTGRIRRKG | not soluble
2 | MDIKELHVKTVKRGENVTMECSMSKVTNKNNLAWYRQSFGKVPQYFVRYYSSNSGYKFAEGFKDSRFSMTVNDQKFDLNIIGAREDDGGEYFCGEVEGIIIKFTSGTRLQFEGSNEGSKSSDGEGSSCPDQMHVLVW | soluble
3 | MDIKKFVARRKALQISQIKLSAGICTQATLSKFERRGRVPSLAILEQLCARLGLTVDELNEDQASSVTQMRQELDHIERQLMMEDYQVVLQALNRIAVSEIAAVPLRMQYYYLSGLLKSLINGAVSDVCFDFDQILDDLDQTHETVFTPLAYVGLGVMYSRLSELAKAQFYFEKVHQAVKQALVNGDDQDYLRLLTMIFYTAEYEATREDFTTSNGLINDGVSLCSEQHVTYYLPRLKYLATANAIQQCQPDEQIQQLLSETVAFARINHNQVVEVKAAALRRRYLQARKHA | not soluble
4 | MDILLTLLDDKTSVASDWRILGIISLRGSTPRLAILLQVVQWAAFYCWRNYMSPYKDKRWRSKRDTALRRDKYECRNCKRFGITTTATVVHHVWFLRDYPKWWLCLWNLISLCEKCHNKMHNRDSDIPTELGEYWQDKIKPPTSATKKYFLEHHHHHH | not soluble
5 | MDISIEFGLYPTESDLTELQQYFPDTNLKKLYEVEAYHKKLETILDSEFSTERESLIAEIDELESQLTTLNQELQELGNIPNLSSEYLENYSKLTATINALKEQNEAYLKESGLSKEKSETDADLKRSTEDILLDLEVKINSKMREVNNILYPDIRKAPQINLNAHNSYSFYTPDDDGTGTKFKGMIVFDLVMLYLTNLPALAHDSLLLSNVSYQATEALLKLYDQSRSLNKQVFLVFDKASSYSPDANQLLSENTVLRLSSNGNELYGISWNKGENSDEI | not soluble
6 | MDKADLYEKNQSRKDILNYYREEDKDFEQYLNFRENRKMLQQAFESGTLIRKQNYRARIHERMVEQPVTEKKELLRSR | not soluble
7 | MDKIRYGIMSTAQIVPRFVAGLRESAQAEVRGIASRRLENAQKMAKELAIPVAYGSYEELCKDETIDIIYIPTYNQGHYSAAKLALSQGKPVLLEKPFTLNAAEAEELFAIAQEQGVFLMEAQKSVFLPITQKVKATIQEGGLGEILWVQSVTAYPNVDHIPWFYSREAGGGALHGSGSYPLQYLQYVLGKEIQEVTGTATYQQGATDSQCNLALKFAEGTLGNIFINVGLKIPSEMTICGTKGQIVIPNFWKTDCAYYTDAQGNTVKWSEQFTSEFTYEINHVNQCLQDKKLTSPVMTKELTIATVKIVESFYQEWFDNE | not soluble
8 | MDKLKIIMEKGTERLKRGFAKMVKGGVIMDVTNAEQARIAEEAGAVAVMALHKVPADIRKAGGVARMAPVEKIQEIMDAVTIPVMAKCRIGHEAEARILEALGVDMIDESEVLTPADPFFHIYKKKFTAPFVCGARNLGEAVRRIWEGAAMIRTKGEAGTGNIIEAVRHVRLVNENIRLIQRMTDEEIYGVAEKFAEPYLRLAFSVKEISGLPKRVLENEPIYEGFTYREIVEDIYKILLEIKKLGRLPVVNFAAGGVATPADAALMMAMGMDGVFVGSGIFKSSNPPKMARAIVEAVNHWDEPDVLAEISREIGEPMRGQAIEELQVRMEERGILEHHHHHH | not soluble
9 | MDKNWMIAMHNPATIYNPNAQTEFVEFPIYTVLIDHPEGKILFDTACNPNSMGPQGRWAEVTQQMFPWNASEECYLHNRLEQLKVRPEDIRYVVASHLHLDHAGCLEMFTNATIIVHEDEFNGALQCYARNQKEGAYIWADIDAWIKNNLQWRTVKRHEDNILLAEGVRVLNFGSGHAWGMLGLHVELPETGKIILASDAIYTAENYGPPVKPPGIIYDSLGYVNTVERIRRIAQETNSKIWFGHDAEQFKQFRKSTEGYYE | not soluble
10 | MDKVLNREESLQLMDLLGLERSAWGNIPLMRKAYLKKCKEFHPDKGGDEEKMKKMNTLYKKMEDGVKYAHQPDFGGFWDATEVFASSLNPGVDAIYCKQWPECVKKMSTNCICLLCLLRMKHENRKLYRKDPLVWVDCYCFDCFRMWFGLDLCEGTLLLWCDIIGQTTYRDLKL | soluble
11 | MDLEPIFLTPVFQERIWGGTKLAERFGYDIPSSQTGECWAVSAHPHGQTVVARGPFAGMTLGQLWEERRDLFGHFPSDRFPLLTKILDANADLSVQVHPDDEYAKTHEGGELGKTECWYIIDCKPGAKLIYGHYAETKGELRAMMEAGEWDRLLRKVPIRPGDFFYVPSGTIHALCEGTLVLETQQSSDTTYRVYDYDRVDSQGRKRELHLEKAIDVTTVPHRDIDVHPHVAEFPGATVTTFVEGDYFGVQKWDVHDAFASEQTKPFLIVSILKGEGELVHHERIYAIRQGDHFILPHQFGRFTIRGMLEAIASWPRAGK | not soluble
12 | MDMKRRIHLELRNRTPAAVRELVLDNCKSNDGKIEGLTAEFVNLEFLSLINVGLISVSNLPKLPKLKKLELSENRIFGGLDMLAEKLPNLTHLNLSGNKLKDISTLEPLKKLECLKSLDLFNCEVTNLNDYRESVFKLLPQLTYLDGYDREDQEAPDSDAEVDGVDEEEEDEEGEDEEDEDDEDGEEEEFDEEDDEDEDVEGDEDDDEVSEEEEEFGLDEEDEDEDEDEEEEEGGKGEKRKRETDDEGEDD | soluble
13 | MDNNVEDKKEAMLKRLANRHEKRLLDQVKSNTKKIDLRATERAFLESSPTSMNMRTPLNPSISSSVSDSPILSYDEKANKQIIALATWCNTMMELDVSEEMDLGESKAEACRNIQKMLKKRSDTSEVENTQENARRRYQRIFEKNDPEVVKKKCKQLLDDSGMDASIKDLLSKNNVAIRKEHAVYNDIGLQTTLLHTFLSFHPAWLKTALEAIFNTRIDAQPKHLMKKLSQFFLDLVFSNPTMLKNKKFAQGSGKPIITEAGKEALHKHFLSVSMKLMFLIETAHTHRVIPNLTRIFTKSSHFNCLDDVFSELTKELLTGSSATFKKAFAKVGFIPTYRQSFIENYDYQAKGFSDFSDGLILAKLLETVGEMPHGQILLKLRDPAGDRIRKIGNVKIVLQEMSSLGVPTDNVNAESIVGGKKDEILSILWAIIGVRVAKEQRIKVTRVSEERTPKKRRSAVHDDMSSEVLKMCKIYGRQMEIEVMDLDSLSDGCLLAKLWTTFGTNSTPIQDYDGLSLWEKVVSVAELELCIQRGLDQNMALFVKMFLERLGMIQDLNEKATKIQRMWKAYVQRKNTPKLYFIVQQLLADSSIPRNRSVSPFSNNVTFTVPRTPRNNILTERPSLSQIPSSRQSMDSTFNDATFTVSRDSIESMNKMQKTPLRGTFTRKTIAMVIEEEDDSENNETVVPSTLKKRTVVRMEHNAEVFREQDEDDENQDKDTVAPSAENLDSPPSDIPLETLSSIPSASQSAIFLQDSETGKEMHVPKAEDVGVVVLEASDSPVALEGNNEASYDGQKIENLETFEIKEGKTQEDLPSKSPMDPTQTSGSPLVEFRMTEEQERLEMLFQSLSEDQKNFVKTNNLSVSIEDDANTPELRRILRQTRELKRKQQEIARKLGNIERNALAVRDGGEDSSDSRSDAGHDVAILHGDDSQLFENSMQLDQKSQLQNDETQILENKKKAAVVIQKMIRGFIARRKFQMEISNIRNRMIQYNHILAQEDEQIGIEEMEDKSVEAKLKKCALHGLTNDNLHVVHVAATVIDRVTDLVPSLLEKLVVELNGIKSITDVLIVADRGFSYTSILHPLLNVLEKLFTKIPEEVTNSHILPHLKILSPRLMLLMLKHSEVKELFIPIINTLTSIARRFPDKKQSSFSSSSYSIKQSLKKVKDQECRNKLVRLESICEDML | not soluble
